Experimental findings from doi:10.1101/419911 are described below.

One assay addresses AP2M1 160-435 (UniProt Q96CW1). The assay is described as follows: isothermal titration calorimetry. The conditions noted are these: reference: unphosphorylated peptide YMPMS; sites S616. Background: ITC needs no label: the signal is the heat of the interaction.
For assay [1], the target named is AP2M1 (residues 160-435) (human) (UniProt Q96CW1). The assay is described as follows: ITC.

In general, Kd refers to the concentration at which binding is half-saturated. Lower therefore signals tighter binding.

Chain of UniProt Q96CW1 (Q96CW1 160-435): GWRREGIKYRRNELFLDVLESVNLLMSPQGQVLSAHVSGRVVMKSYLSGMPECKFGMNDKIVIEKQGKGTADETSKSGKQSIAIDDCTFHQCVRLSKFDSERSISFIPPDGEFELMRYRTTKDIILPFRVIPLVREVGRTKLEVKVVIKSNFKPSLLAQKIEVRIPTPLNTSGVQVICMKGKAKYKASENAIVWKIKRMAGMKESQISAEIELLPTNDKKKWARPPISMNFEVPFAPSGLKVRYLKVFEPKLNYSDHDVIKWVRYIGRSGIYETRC

For the substance “IRS1 607-620 (from UniProt P35568) YMPMpS peptide (pS-IRS1)”, in the assay with AP2M1 160-435, the KD result was “stronger; reference 2.03 µM”.
As to IRS1 peptide YMPMS (unphosphorylated), the Kd in assay [1] came to 2030 nM.
The same measure, in the same setting: the value for “IRS1 peptide YMPMpS (phospho-S616), pS-IRS1” was 280 nM.
